Laboratory results taken from the supplement of paper PMC10065799, “High-throughput profiling of sequence recognition by tyrosine kinases and SH2 domains using bacterial peptide display” (eLife, 2023).

How the values were obtained:
Jak2 = Jak2 (UniProt O60674); experiment: phosphorylation enrichment, bacterial display (enrichment ratio); higher = better substrate or ligand; peptides without Tyr show the background
Fyn = Fyn (UniProt P06241); experiment: as above
FGFR1 = FGFR1 (UniProt P11362); experiment: as above
FGFR3 = FGFR3 (UniProt P22607); experiment: as above
Chain of FGFR3 (P22607 whole entry, looked up): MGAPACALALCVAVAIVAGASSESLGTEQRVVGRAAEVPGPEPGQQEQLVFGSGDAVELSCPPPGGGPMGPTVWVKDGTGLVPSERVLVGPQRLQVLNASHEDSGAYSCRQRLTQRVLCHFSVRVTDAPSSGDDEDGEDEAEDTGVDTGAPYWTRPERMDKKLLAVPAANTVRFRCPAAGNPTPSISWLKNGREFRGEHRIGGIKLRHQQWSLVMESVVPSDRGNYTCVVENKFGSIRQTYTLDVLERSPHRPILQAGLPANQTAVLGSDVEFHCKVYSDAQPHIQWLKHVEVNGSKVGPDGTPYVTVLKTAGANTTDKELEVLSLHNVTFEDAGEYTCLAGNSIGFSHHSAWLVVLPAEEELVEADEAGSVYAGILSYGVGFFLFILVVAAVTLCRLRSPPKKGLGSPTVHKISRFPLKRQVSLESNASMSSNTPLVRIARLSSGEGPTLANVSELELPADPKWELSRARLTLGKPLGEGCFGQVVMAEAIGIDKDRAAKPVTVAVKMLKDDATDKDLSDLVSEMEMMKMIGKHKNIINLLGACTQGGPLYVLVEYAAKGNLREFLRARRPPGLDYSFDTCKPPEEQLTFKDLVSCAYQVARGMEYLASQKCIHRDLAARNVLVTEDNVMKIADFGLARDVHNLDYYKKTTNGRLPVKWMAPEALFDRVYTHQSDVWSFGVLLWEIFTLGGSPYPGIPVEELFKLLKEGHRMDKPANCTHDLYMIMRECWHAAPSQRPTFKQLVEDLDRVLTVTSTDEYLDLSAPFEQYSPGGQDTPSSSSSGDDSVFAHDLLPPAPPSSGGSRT

EPHB2 = EPHB2 (UniProt P29323); experiment: as above
Chain of EPHB2 (P29323 whole entry, looked up): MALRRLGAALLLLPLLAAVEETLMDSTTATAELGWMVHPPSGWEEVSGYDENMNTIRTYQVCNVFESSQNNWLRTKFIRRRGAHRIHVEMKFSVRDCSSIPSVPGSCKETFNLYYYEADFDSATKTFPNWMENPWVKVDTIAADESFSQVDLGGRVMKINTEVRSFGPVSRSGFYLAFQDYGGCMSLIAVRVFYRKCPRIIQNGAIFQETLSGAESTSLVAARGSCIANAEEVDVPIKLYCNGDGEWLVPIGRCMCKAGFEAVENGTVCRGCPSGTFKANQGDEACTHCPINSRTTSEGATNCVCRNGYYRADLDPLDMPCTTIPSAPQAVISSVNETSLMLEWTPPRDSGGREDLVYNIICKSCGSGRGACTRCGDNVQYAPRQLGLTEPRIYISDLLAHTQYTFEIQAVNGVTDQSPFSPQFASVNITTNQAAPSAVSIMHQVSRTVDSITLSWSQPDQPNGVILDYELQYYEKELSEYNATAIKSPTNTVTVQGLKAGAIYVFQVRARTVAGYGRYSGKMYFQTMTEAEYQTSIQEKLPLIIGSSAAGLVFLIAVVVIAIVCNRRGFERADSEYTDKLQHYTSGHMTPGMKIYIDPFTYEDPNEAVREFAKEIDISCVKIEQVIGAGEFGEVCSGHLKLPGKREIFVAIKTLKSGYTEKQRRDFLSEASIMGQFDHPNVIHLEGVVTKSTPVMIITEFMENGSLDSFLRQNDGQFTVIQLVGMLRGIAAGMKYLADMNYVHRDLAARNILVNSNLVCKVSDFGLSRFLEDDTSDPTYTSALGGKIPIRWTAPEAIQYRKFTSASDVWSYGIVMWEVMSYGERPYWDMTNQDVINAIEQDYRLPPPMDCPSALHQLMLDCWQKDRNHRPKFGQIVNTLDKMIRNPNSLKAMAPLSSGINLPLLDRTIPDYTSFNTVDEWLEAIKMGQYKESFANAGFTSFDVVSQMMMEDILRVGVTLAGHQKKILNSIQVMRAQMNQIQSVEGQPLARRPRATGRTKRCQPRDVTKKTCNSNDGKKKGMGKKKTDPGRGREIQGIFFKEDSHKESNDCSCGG

Fes = Fes (UniProt P07332); experiment: as above
Chain of Fes (P07332 whole entry, looked up): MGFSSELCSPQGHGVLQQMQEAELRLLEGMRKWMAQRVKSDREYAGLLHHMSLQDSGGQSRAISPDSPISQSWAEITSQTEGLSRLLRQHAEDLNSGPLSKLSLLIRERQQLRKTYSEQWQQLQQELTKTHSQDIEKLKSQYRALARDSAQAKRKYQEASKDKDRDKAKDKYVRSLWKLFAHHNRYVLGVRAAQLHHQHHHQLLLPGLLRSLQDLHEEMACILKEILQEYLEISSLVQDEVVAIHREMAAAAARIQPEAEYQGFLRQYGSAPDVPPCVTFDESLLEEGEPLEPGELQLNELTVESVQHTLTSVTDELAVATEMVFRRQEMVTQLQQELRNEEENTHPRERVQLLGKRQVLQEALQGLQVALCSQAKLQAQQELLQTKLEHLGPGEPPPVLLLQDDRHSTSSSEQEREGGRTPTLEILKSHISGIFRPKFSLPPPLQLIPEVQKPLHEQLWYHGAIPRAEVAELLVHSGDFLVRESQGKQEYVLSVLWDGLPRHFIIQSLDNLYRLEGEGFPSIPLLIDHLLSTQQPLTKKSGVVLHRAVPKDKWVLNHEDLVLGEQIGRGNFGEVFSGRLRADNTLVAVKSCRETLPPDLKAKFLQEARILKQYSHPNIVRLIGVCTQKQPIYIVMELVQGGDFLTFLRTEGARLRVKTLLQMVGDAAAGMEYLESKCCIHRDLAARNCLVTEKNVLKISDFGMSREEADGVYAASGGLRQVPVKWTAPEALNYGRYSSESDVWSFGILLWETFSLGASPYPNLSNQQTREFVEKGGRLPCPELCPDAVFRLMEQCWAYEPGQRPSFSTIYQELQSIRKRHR

AncSZ = experiment: as above
c-Src = experiment: as above
c-Abl (mouse) = experiment: as above
Fer (mouse) = experiment: as above
Hck = Hck (UniProt P08631); experiment: as above
Chain of Hck (P08631 whole entry, looked up): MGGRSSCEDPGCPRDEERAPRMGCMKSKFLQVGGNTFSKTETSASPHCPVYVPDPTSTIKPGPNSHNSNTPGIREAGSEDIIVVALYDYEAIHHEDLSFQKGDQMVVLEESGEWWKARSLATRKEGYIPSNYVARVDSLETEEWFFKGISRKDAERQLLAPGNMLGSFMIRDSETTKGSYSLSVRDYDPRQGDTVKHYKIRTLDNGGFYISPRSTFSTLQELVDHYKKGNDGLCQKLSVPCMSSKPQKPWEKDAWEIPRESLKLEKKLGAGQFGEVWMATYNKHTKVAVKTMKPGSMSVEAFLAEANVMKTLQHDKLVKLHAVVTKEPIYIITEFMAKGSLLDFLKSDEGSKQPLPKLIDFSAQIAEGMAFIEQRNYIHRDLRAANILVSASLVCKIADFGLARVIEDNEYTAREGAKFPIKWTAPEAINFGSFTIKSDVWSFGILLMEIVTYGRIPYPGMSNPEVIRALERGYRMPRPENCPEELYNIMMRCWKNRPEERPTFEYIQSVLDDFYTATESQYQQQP

MERTK = MERTK (UniProt Q12866); experiment: as above
EPHB1 = EPHB1 (UniProt P54762); experiment: as above
Chain of EPHB1 (P54762 whole entry, looked up): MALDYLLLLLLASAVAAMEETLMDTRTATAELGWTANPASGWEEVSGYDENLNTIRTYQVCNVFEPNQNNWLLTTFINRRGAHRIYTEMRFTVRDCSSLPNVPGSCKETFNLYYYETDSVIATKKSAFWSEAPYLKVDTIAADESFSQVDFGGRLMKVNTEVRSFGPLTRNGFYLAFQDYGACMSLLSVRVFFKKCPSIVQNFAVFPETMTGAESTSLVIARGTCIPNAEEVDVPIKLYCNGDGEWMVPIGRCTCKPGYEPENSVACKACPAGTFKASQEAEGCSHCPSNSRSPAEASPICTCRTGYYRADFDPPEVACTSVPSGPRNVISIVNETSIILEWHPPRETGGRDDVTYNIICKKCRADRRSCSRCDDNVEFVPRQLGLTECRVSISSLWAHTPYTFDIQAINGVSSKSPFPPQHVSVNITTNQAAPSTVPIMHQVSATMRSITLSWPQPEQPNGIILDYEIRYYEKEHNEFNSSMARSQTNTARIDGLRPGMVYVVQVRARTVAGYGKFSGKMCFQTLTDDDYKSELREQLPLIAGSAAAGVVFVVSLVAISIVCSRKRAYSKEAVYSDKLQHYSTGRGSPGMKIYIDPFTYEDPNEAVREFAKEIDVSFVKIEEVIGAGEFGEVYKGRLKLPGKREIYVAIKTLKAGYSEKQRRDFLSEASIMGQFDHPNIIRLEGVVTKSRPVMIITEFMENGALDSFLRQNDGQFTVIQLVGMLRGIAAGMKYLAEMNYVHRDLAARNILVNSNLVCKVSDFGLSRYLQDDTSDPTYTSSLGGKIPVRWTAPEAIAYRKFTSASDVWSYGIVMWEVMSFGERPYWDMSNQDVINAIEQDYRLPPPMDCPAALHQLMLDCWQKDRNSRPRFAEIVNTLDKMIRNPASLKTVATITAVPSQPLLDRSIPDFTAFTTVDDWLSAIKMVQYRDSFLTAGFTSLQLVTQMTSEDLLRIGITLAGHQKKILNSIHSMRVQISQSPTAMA

c-Src SH2 = experiment: SH2 binding enrichment of the phosphorylated peptide, bacterial display (enrichment ratio); higher = better substrate or ligand; peptides without Tyr show the background
SHP2-C SH2 = experiment: as above
Grb2 SH2 = Grb2 SH2 (UniProt P62993); experiment: as above
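Throughout, for SH2 binding enrichment of the phosphorylated peptide, bacterial display: peptide library displayed on the E. coli surface as eCPX fusions, selected cells deep-sequenced, score is each peptide's frequency after selection divided by its frequency in the input.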
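Throughout, for phosphorylation enrichment, bacterial display: 11-residue human phosphosite peptides and single-mutation variants displayed on the E. coli surface, counted by deep sequencing, each peptide's frequency after selection divided by its frequency in the unselected input library; frequency after pTyr selection over input frequency; kinase dosed for 20-30% of maximal phosphorylation in three min.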

Chain of Fyn (P06241 whole entry, looked up): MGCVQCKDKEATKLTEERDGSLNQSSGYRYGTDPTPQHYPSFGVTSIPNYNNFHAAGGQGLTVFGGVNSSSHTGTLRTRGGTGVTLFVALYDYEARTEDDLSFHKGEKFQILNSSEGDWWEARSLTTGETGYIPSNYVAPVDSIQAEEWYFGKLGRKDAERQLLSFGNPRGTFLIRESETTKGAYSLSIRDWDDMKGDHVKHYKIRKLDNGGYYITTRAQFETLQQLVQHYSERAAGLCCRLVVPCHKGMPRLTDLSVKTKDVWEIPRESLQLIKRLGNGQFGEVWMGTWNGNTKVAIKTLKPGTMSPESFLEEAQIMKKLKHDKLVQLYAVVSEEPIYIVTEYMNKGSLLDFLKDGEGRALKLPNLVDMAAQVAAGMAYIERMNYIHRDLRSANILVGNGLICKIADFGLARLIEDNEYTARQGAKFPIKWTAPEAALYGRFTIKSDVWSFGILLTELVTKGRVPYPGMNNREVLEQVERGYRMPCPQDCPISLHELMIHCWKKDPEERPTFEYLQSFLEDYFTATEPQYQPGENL

SH2 binding enrichment (c-Src SH2) | SH2 binding enrichment (SHP2-C SH2) | SH2 binding enrichment (Grb2 SH2) | Sequence | phosphorylation enrichment (Jak2) | phosphorylation enrichment (Fyn) | phosphorylation enrichment (FGFR1) | phosphorylation enrichment (FGFR3) | phosphorylation enrichment (EPHB2) | phosphorylation enrichment (Fes) | phosphorylation enrichment (AncSZ) | phosphorylation enrichment (c-Src) | phosphorylation enrichment (c-Abl (mouse)) | phosphorylation enrichment (Fer (mouse)) | phosphorylation enrichment (Hck) | phosphorylation enrichment (MERTK) | phosphorylation enrichment (EPHB1)
0.486 | 0.737 | 0.862 | SELVRYDARVH [MET_Y971] | 0.687 | 0.456 | 0.479 | 0.627 | 0.494 | 0.739 | 0.595 | 0.433 | 0.523 | 0.442 | 0.581 | 0.443 | 0.388
0.508 | 0.813 | 1.01 | SLDHPFEKPRK [INAVA_Y333_Y333F] | 0.663 | 0.721 | 0.388 | 0.524 | 0.433 | 0.749 | 0.589 | 0.436 | 0.61 | 0.3 | 0.376 | 0.365 | 0.317
0.535 | 0.483 | 0.782 | WHFTFYNELRV [ACTC1_Y93_H90Y_YF] | 1.2 | 0.413 | 0.542 | 1.07 | 0.671 | 1.5 | 1.42 | 0.42 | 1.27 | 0.578 | 0.635 | 0.392 | 0.784
3.06 | 0.892 | 0.987 | ENKGVYVLMSG [IVD_Y277] | 1.23 | 0.561 | 2.5 | 1.79 | 0.626 | 1.26 | 1.2 | 0.788 | 0.739 | 0.599 | 0.518 | 1.13 | 0.727
0.714 | 0.773 | 0.878 | RENGPYFTSFP [GDAP2_Y487_YF] | 0.991 | 0.479 | 0.764 | 0.825 | 0.645 | 1.17 | 1.03 | 0.971 | 1.19 | 0.591 | 0.49 | 0.568 | 0.417
0.709 | 0.865 | 0.943 | LQPNNCQFCGG [CSF1R_Y969_Y969C] | 1.05 | 0.752 | 0.752 | 1.21 | 0.711 | 0.858 | 0.929 | 0.647 | 1.07 | 0.348 | 0.987 | 0.785 | 0.735
0.415 | 0.764 | 0.97 | RRGMPYGGHGD [TGM1_Y312_R315H] | 0.377 | 0.706 | 0.758 | 0.472 | 0.624 | 0.653 | 0.572 | 0.434 | 0.357 | 0.582 | 0.52 | 0.465 | 0.414
0.552 | 0.598 | 0.867 | DLKFHYDNTAG [KDR_Y1214_P1210L] | 0.889 | 0.484 | 0.517 | 0.661 | 0.504 | 1 | 0.804 | 0.426 | 0.663 | 0.466 | 0.462 | 0.415 | 0.515
0.456 | 0.785 | 1.01 | AEQEEYSAMRD [NRAS_Y64_G60E] | 1.14 | 0.458 | 0.525 | 0.737 | 0.566 | 1.26 | 1.4 | 0.536 | 0.802 | 0.469 | 0.571 | 0.478 | 0.541
0.638 | 0.904 | 0.904 | QSPQLYKQMCI [DARS1_Y253] | 0.917 | 0.796 | 0.461 | 0.573 | 0.559 | 0.896 | 0.881 | 0.485 | 0.932 | 0.673 | 0.634 | 0.603 | 0.836
0.83 | 1.03 | 0.944 | FGSVDCWEKFF [EEF1AKNMT_Y16_Y16C] | 1.04 | 0.436 | 0.511 | 0.569 | 0.624 | 1.24 | 1.14 | 0.461 | 0.801 | 0.462 | 0.426 | 0.459 | 0.474
0.711 | 0.927 | 0.696 | LFMGDYVDRGY [PPP2CA_Y86] | 1.41 | 0.699 | 1.46 | 1.02 | 0.977 | 1.47 | 1.6 | 0.8 | 0.982 | 0.612 | 1.01 | 0.701 | 0.983
2.11 | 0.769 | 0.913 | TEQDPYNNIVH [MMUT_Y364_R369H] | 0.788 | 0.572 | 0.501 | 0.599 | 0.679 | 0.965 | 1.05 | 0.515 | 0.851 | 0.544 | 0.586 | 0.512 | 0.475
0.523 | 0.699 | 0.746 | DRPSEYAARQL [ANXA13_Y90] | 0.498 | 0.453 | 0.445 | 0.482 | 0.456 | 0.655 | 0.598 | 0.389 | 0.579 | 0.341 | 0.428 | 0.437 | 0.408
0.473 | 0.808 | 1 | EYQKKYSDADI [CKAP5_Y1860_K1857Q] | 0.841 | 0.37 | 0.46 | 0.589 | 0.481 | 0.998 | 0.913 | 0.45 | 0.706 | 0.597 | 0.383 | 0.432 | 0.491
0.429 | 0.694 | 0.764 | LKTNCYNNGKD [DNMT3B_Y404] | 1.24 | 0.649 | 0.685 | 1.12 | 0.818 | 1.21 | 1.12 | 0.572 | 3.04 | 0.68 | 0.879 | 0.601 | 1.09
0.753 | 0.881 | 0.972 | GGFTRYCDGKK [PROS1_Y266_C265R_YF] | 0.653 | 0.368 | 0.369 | 0.449 | 0.315 | 0.722 | 0.771 | 0.423 | 0.601 | 0.436 | 0.403 | 0.403 | 0.393

SH2 binding enrichment (c-Src SH2) | SH2 binding enrichment (SHP2-C SH2) | SH2 binding enrichment (Grb2 SH2) | Sequence | phosphorylation enrichment (Jak2) | phosphorylation enrichment (Fyn) | phosphorylation enrichment (FGFR1) | phosphorylation enrichment (FGFR3) | phosphorylation enrichment (EPHB2) | phosphorylation enrichment (Fes) | phosphorylation enrichment (AncSZ) | phosphorylation enrichment (c-Src) | phosphorylation enrichment (c-Abl (mouse)) | phosphorylation enrichment (Fer (mouse)) | phosphorylation enrichment (Hck) | phosphorylation enrichment (MERTK) | phosphorylation enrichment (EPHB1)
0.344 | 0.691 | 0.685 | SREDIYKRNTE [PDE4DIP_Y45_I49T] | 0.81 | 0.409 | 0.411 | 0.696 | 0.416 | 1.05 | 0.8 | 0.451 | 0.898 | 0.463 | 0.429 | 0.374 | 0.62
0.789 | 1.8 | 1.78 | CFVFFYSFLLK [PTEN_Y178_R173C_YF] | 0.987 | 0.459 | 0.423 | 0.865 | 0.72 | 1.03 | 0.997 | 0.519 | 0.86 | 0.487 | 0.578 | 0.557 | 0.473
1.02 | 1.37 | 1.58 | SLFQFYFQQKG [CHKB_Y381_R377L] | 1.43 | 0.397 | 0.521 | 0.833 | 0.568 | 1.42 | 1.35 | 0.425 | 0.932 | 0.612 | 0.488 | 0.403 | 0.657
0.532 | 0.798 | 0.909 | EVVGRYSVHFA [MLH1_Y183_N187Y_YF] | 0.692 | 0.579 | 0.529 | 0.676 | 0.49 | 0.978 | 0.92 | 0.436 | 0.531 | 0.424 | 0.504 | 0.448 | 0.612
1.14 | 0.782 | 1.14 | KSVEEYANCHL [TF_Y593_P589S] | 0.688 | 0.458 | 0.475 | 0.666 | 0.429 | 0.85 | 0.756 | 0.408 | 0.628 | 0.466 | 0.486 | 0.521 | 0.482
1.47 | 1.59 | 1.77 | IIRQLYLKWHP [SACS_Y4333_R4331Q] | 1.01 | 0.38 | 0.473 | 0.604 | 0.444 | 1.02 | 0.888 | 0.509 | 0.608 | 0.4 | 1.12 | 1.08 | 0.469
0.656 | 1.01 | 0.948 | KFSNQYKATIG [RAB7A_Y37] | 0.538 | 0.41 | 0.351 | 0.411 | 0.311 | 0.613 | 0.528 | 0.485 | 0.471 | 0.463 | 0.44 | 0.4 | 0.47
0.653 | 0.762 | 0.861 | KFANSYRMEPL [TCTE3_Y87] | 0.774 | 0.47 | 0.443 | 0.491 | 0.409 | 0.623 | 0.574 | 0.528 | 0.534 | 0.465 | 0.414 | 0.417 | 0.43
0.546 | 0.513 | 0.752 | QLQTNYPSSDN [MAX_Y115] | 0.773 | 0.476 | 0.642 | 0.725 | 0.766 | 1.14 | 0.951 | 0.628 | 1.02 | 0.551 | 0.527 | 0.657 | 0.583
0.394 | 0.746 | 0.883 | KKYPDYIQSAM [SGMS2_Y59_I62S] | 0.716 | 0.443 | 0.484 | 0.487 | 0.396 | 0.772 | 0.839 | 0.428 | 0.595 | 0.373 | 0.413 | 0.392 | 0.543
0.494 | 0.753 | 0.742 | MFVKSYTIHFS [F5_Y2153_YF] | 1.05 | 0.482 | 0.49 | 0.736 | 0.579 | 1.19 | 1 | 0.48 | 0.851 | 0.464 | 0.495 | 0.456 | 0.565
1.23 | 0.768 | 1.01 | EGNEQYEGYCV [GRIA3_Y451_R450Q] | 0.942 | 0.567 | 0.557 | 0.691 | 0.592 | 1.05 | 1.19 | 0.506 | 1.26 | 1.11 | 0.604 | 0.422 | 0.556
0.515 | 0.916 | 0.685 | KKKKQYKGKFL [CASK_Y708_D710G_YF] | 0.535 | 0.532 | 0.485 | 0.579 | 0.549 | 0.526 | 0.617 | 0.638 | 0.547 | 0.439 | 0.523 | 0.533 | 0.447
1.11 | 3.05 | 1.52 | SPYMLYQYLKQ [RPAP3_Y567_D564Y] | 2.23 | 4.34 | 5.62 | 4.11 | 11.4 | 1.24 | 1.39 | 5.57 | 3.63 | 10.6 | 7.66 | 9.38 | 14.1
0.373 | 0.606 | 0.758 | ADGLEYSRTGL [MMUT_Y287] | 0.855 | 0.544 | 0.602 | 0.559 | 1.6 | 0.978 | 0.99 | 0.641 | 0.878 | 0.514 | 0.776 | 0.592 | 0.555
0.775 | 0.938 | 1.38 | RHPLEYLRQYP [NARS2_Y138] | 1.22 | 0.579 | 0.75 | 0.586 | 0.45 | 1.13 | 0.664 | 0.577 | 1.37 | 0.536 | 0.561 | 0.454 | 0.523
